Consider 26 sequences from the DeepSol protein solubility set.

This data set in a line: soluble on expression in E. coli; label from the status in PepcDB or PDB records.
For “ETVIMKYLLPTAAAGLLLLAAQPAMAQVKLQQSGAELVRSGTSVKLSCTASGFNIKDSYMHWLRQGPEQGLEWIGWIDPENGDTEYAPKFQGKATFTTDTSSNTAYLQLSSLTSEDTAVYYCNEGTPTGPYYFDYWGQGTTVTVSSGGGGSGGGGSGGGGSENVLTQSPAIMSASPGEKVTITCSASSSVSYMHWFQQKPGTSPKLWIYSTSNLASGVPARFSGSGSGTSYSLTISRMEAEDAATYYCQQRSSYPLTFGAGTKLELKRAAAEQKLISEEDLN”, the “soluble on expression in E. coli” value is “soluble”. To “ETVQVNLPVSLEDLFVGKKKSFKIGRKGPHGASEKTQIDIQLKPGWKAGTKITYKNQGDYNPQTGRRKTLQFVIQEKSHPNFKRDGDDLIYTLPLSFKESLLGFSKTIQTIDGRTLPLSRVQPVQPSQTSTYPGQGMPTPKNPSQRGNLIVKYKVDYPISLNDAQKRAIDENF” belongs “soluble”; to “EVKLQESGPSLVKPSQTLSLTCSVTGDSITSDFWSWIRQFPGNRLEYMGFVQYSGETAYNPSLKSRISITRDTSKNQYYLDLNSVTTEDTAVYYCANWHGDYWGQGTTVTVSSAKTTPPSVYPLAPGSAAQTNSMVTLGCLVKGYFPEPVTVTWNSGSLSSGVHTFPAVLQSDLYTLSSSVTVPSSTWPSETVTCNVAHPASSTKVDKKIVPRDCHHHHHH”, “soluble”. For the sequence “EVQLQQSGAELVRPGTSVKLSCKASGYSFTNYWMNWLRQRPGQGLDWIGMIHPSDSETRLNQKFKDKATLTVDRSSSTAYIQLSSPTSEDSAVYYCARDDYDGAFWGQGTLVTVSAAKTTPPSVYPLAPGSAAQTNSMVTLGCLVKGYFPAPVTVTWNSGSLSSGVHTFPAVLQSDLYTLSSSVTVPSSTWPSETVTCNVAHPASSTKVDKKIVPRDC”, the “soluble on expression in E. coli” value is listed as “soluble”. On to “EYLDGFEAFTDQYKIKFQEFLDRFGIYYQPSTNKNAELFKVADSDIPSAEVKAYYVKEEWYFTPTNSDVDIKIQAICPIMTGQDEFGEVRNQPLFWIPYENIRPYIARERVMLSSLNNTRNSTIDDFFRLNLYKGDIVKTENLHNRALAEYCPTPDSMKMESKRIDKELQGFRDGLFVTQDTTWMKQAETKKSKGKKLEKARGKNITSRTRGQGEGAAETEAVEPKKQKASKNKAATRSVRRRK”, for which the “soluble on expression in E. coli” value is on record as “not soluble”. To “FNFGASYKNFSFSAQFGASWGTYALVQTDLRQEKYDDLEYKNVSAMWKDMYVYEDVLDAGGNVVAPMNRSAKYPNLRYSAINGQASTFWKVSAASVRLRNLTVAYSLPKEWTNRIGISSCRLNLTAQNLLNFYNPYPDGVWSTWGGTYGRYPNLRKVTLGVNVSF” belongs “not soluble”. As for “FRFGLPIFHTIRWLVNLSKGKLEEPRNREGRPVSKNKKGKIKQPYRFFGEIFESMDQLTETLRRDKRNREKIQATREEWIAGLSHDLKTPLSSIYGYSMMLESKQYDWSPEEGEEMGQVVREKSEYMSKLIEDLNLTYRLKNDALPIERKLTSLIPFFKNVIEDFKKNPFSEGYDISFVSKEEHIEFALDEAWFRRILENLLGNAVKHNGKGTEIQVILEQTKNHISLKVKDNGKGMDEETITHLFNRYYRGTNTKDSTAGTGLGLAIAKELVHLHNGTIHVNSRTNIGTVITILFK”, the “soluble on expression in E. coli” value is recorded as “not soluble”. To “FRGFRYNAGVYFDRSRNKLTEFGAEEIGSYSIKREGLPYDEYYMLECIGVFADQAEINASPKQFNDNTQPGDLKYKDISGPDGKPDGVIDNYDRRTFSGRFPGFEYGINASATWKGFDLSLIGQGVADKKYYTTDWGVQPFMQGSSPNKDYIKHMWTEENPYGAKHPKLYWQDMGGGKNTRPNSYYLKDASFFRLKNLTLGYTLPRVWTEKANISKVRIYFSGDNLLTLTPYKGLDPERNGDGRDAIYPQNRIYSFGLNVEF” belongs “not soluble”. Turning to “FVNVGERTNVTGSKMFARLVREEKYDEALAVARQQVENGAQIIDVNMDEAMLDSVACMHRFLNLIASEPDIARVPVMIDSSKWEVIETGLKCVQGKAVVNSISMKEGEEPFRHHARLCRRYGAAMVVMAFDEQGQADSLERRKEICGRAYRILVEEEGFPPEDIIFDPNVFAVATGIDEHNHYAVDFIEGARWIRANLPHARISGGISNVSFSFRGNEPMREAIHTVFLYYAIEAGLTMGIVNAGQLGVYADLAPHLRDLVEDVILDRPE”, the “soluble on expression in E. coli” value is given as “not soluble”.

In the case of “GAEPKGLLRVDLPVSLGRMVVIPALPEFTRRYPQVRLEIGMSDRPVDLIREGVDCVLRAGAALDEALVARPLGSLTQITCASREYLQQHGTPLQLEDLAHHQVIEYFSASTSKRYGLEFVGEGGAPDHGLACSISVNSADGY”, the “soluble on expression in E. coli” value is “not soluble”. With “GAMDENDEGVRGTCEDASLCKRFAVSIGYWHDPYIQHFVRLSKERKAPEINRGYFARVHGVSQLIKAFLRKTECHCQIVNLGAGMDTTFWRLKDEDLLPSKYFEVDFPMIVTRKLHSIKCKPPLSSPILELHSEDTLQMDGHILDSKRYAVIGADLRDLSELEEKLKKCNMNTQLPTLLIAECVLVYMTPEQSANLLKWAANSFERAMFINYEQVNEGKSLESQKERLLSNGWETASAVDMMELYNRLPRAEVSRIESLEFLDEMELLEQLMRHYCLCWATKGGNELGLKEITY”, the “soluble on expression in E. coli” value is “soluble”.

As to “GAMDTMESIVLNTIVTGLQEPKKEFIARVIKTIGSQRSLQLYENAMKVENSGGLLTADMSRRKTIGGVFCYLLKQLVAEDQITIQEWNYIRQEEKERINAKNILKRNNRRCQV”, the “soluble on expression in E. coli” value is listed as “soluble”. To “GAMESHPHIQLLKSNRELLVTHIRNTQCLVDNLLKNDYFSAEDAEIVCACPTQPDKVRKILDLVQSKGEEVSEFFLYLLQQLADAYVDLRPWLLEIGFSPSLLTQSKVVVNTDPVSRYTQQLRHHLG” belongs “soluble”. Regarding “GAMGMKVDVGPDPSLVYRPDVDPEMAKSKDSFRNYTSGPLLDRVFTTYKLMHTHQTVDFVSRKRIQYGSFSYKKMTIMEAVGMLDDLVDESDPDVDFPNSFHAFQTAEGIRKAHPDKDWFHLVGLLHDLGKIMALWGEPQWAVVGDTFPVGCRPQASVVFCDSTFQDNPDLQDPRYSTELGMYQPHCGLENVLMSWGHDEYLYQMMKFNKFSLPSEAFYMIRFHSFYPWHTGGDYRQLCSQQDLDMLPWVQEFNKFDLYTKCPDLPDVESLRPYYQGLIDKYCPGTLSW”, the “soluble on expression in E. coli” value is “soluble”. As to “GAMKNSFDRLIDGLAKDYGMPGFPEKKHEHEVYCFEFKEVSIRIYQDKFKWVYFLSDIGVIDNLDSNACQSLLRLNEFNLRTPFFTVGLNEKKDGVVHTRIPLLNLDNVEMRRVFEALLNLSGEVKKTFGFV”, the “soluble on expression in E. coli” value was “soluble”. As to “GAMSCIKGNVDLVFLFDGSMSLQPDEFQKILDFMKDVMKKLSNTSYQFAAVQFSTSYKTEFDFSDYVKRKDPDALLKHVKHMLLLTNTFGAINYVATEVFREELGARPDATKVLIIITDGEATDSGNIDAAKDIIRYIIGIGKHFQTKESQETLHKFASKPASEFVKILDTFEKLKDLFTELQKKIYVIEG”, the “soluble on expression in E. coli” value is on record as “soluble”. Turning to “GAMSSPAGSPTEQAPPAKGSVKVLRTVATGLNSPWGLAPLPGGDLLVSSRDEATITRVDAKTGRKTELGEVPGVSPSGEGGLLGIALSPDYASDHMVYAYFTSASDNRIVRMLYDEKKPSGEQLGAPDTVFRGIPKGVIHNGGRIAFGPDKMLYAGTGESGDTGLSQDRKSLGGKILRMTPDGEPAPGNPFPGSPVYSYGHRNVQGLAWDDKQRLFASEFGQDTWDELNAIKPGDNYGWPEAEGKGGGSGFHDPVAQWSTDEASPSGIAYAEGSVWMAGLRGERLWRIPLKGTAAAADPQAFLEGEYGRLRTVAPAGGDKLWLVTSNTDGRGDAKGGDDRILELEVE”, the “soluble on expression in E. coli” value is on record as “soluble”. The entry for “GAQNEKNMYSYKKIGNKYIVSINNHTEIVKALNAFCKEKGILSGSINGIGAIGELTLRFFNPKTKAYDDKTFREQMEISNLTGNISSMNEQVYLHLHITVGRSDYSALAGHLLSAIQNGAGEFVVEDYSERISRTYNPDLGLNIYDFER” is “soluble”. To “GDTHEFHKLLIKVVDLFLEDRIKEFEMKLNTTLDELEFEELIGKPDSSNSAENNGIFIDEYSYDASENAMKKLFVEYVRQPEFKYTVLSIKGVNDWVRE” belongs “soluble”; to “GEALDYKTPLLKALAAVDKAATEVCQLFDKNVTRVFTNLGWEQEYFLVDSSLYNARPDLCLTGRTLMGHSSAKDQQLEDHYFGSIPPRVTAFMKELEIECHKLGIPAKTRHNEVAPNQFELAPIFENCNLANDHNQLVMDLMKRIARKHHFNVLLHEKPYSSVNGSGKHNNWSLCTDTGINLFAPGKNPKGNMLFLTFLVNVLMMVYKNQDLLRASIMSASNSYRLGANEAPPAILSCFLGSQLSATLDEIVRQVGNEKMTPEEKTTLKLGIGRIPEILLDTTDRNRTSPFAFTGNRFEFRAAGSSSNCAAAMIAINAAMANQLNEFRASVEKLMEEGVGKDEAIFRLLKETIIASEAIRFEGDGYSEEWRQEAARRGLTNICHVPEALMHYVDNQSKSVLIGERIFNETELNSRLEVELEKYTMKVQIEGRVLGDLAINH”, “not soluble”; to “GEDFFFVVMRDISSKKILEREFSMNEQLFKDLFDRAVDGIVLFDKDGGFIDANLSFCKSFEINHNELSHLSLYEFIDSGSRKDFDNIWKALNRKGKAKGELPVKLRSGVQKLFEFTITSNII”, “not soluble”. To “GEDKKGGTKPSNEAALTKTENLDFRLSFNKIKVTTDQNHFSGGTSIEQLKQWFGDPNKSEQRNAGNITLDSYTWVKDGAVINAQLYKNSTVARSISNFSFSREAKIGKEDYDELKIGESYKKIVEKLGEPDVLSQSMSSDKEEMQTVWSSGIKTKSSSATIELYFENGLLKNKTQKDLE” belongs “soluble”. Take “GEEEKKRTARTDYWLQPEIIVKIITKKLGEKYHKKKAIVKEVIDKYTAVVKMIDSGDKLKLDQTHLETVIPAPGKRILVLNGGYRGNEGTLESINEKTFSATIVIETGPLKGRRVEGIQYEDISKLA”: the “soluble on expression in E. coli” value was “soluble”. Turning to “GEEQPQQISVASGTPVSADQTPATPQEQPRAPWWDASPGVQRLITLKDPQVVCEAASAGLLKTLRFVKYLPCFQILPLDQQLVLVRSCWAPLLMLELAQDHLHFEMMEIPETNTTQEMLTTRRQETEGPEPAEPQATEQPQMVSAEAGHLLPAAAVQAIKSFFFKCWSLNIDTKEYAYLKGTVLFNPDLPGLQCVKYIEGLQWRTQQILTEHIRMMQREYQIRSAELNSALFLLRFINSDVVTELFFRPIIGAVSMDDMMLEMLCAKL”, the “soluble on expression in E. coli” value is on record as “soluble”. To “GFTVALIQGDGIGPEIVSKSKRILAKINELYSLPIEYIEVEAGDRALARYGEALPKDSLKIIDKADIILKGPVGESAADVVVKLRQIYDMYANIRPAKSIPGIDTKYGNVDILIVRENTEDLYKGFEHIVSDGVAVGMKIITRFASERIAKVGLNFALRRRKKVTCVHKANVMRITDGLFAEACRSVLKGKVEYSEMYVDAAAANLVRNPQMFDVIVTENVYGDILSDEASQIAGSLGIAPSANIGDKKALFEPVHGAAFDIAGKNIGNPTAFLLSVSMMYERMYELSNDDRYIKASRALENAIYLVYKERKALTPDVGGNATTDDLINEIYNKLG” belongs “soluble”. The entry for “GGGSCYFIPNEGVPGDSTRKCMDLKGNKHPINSEWQTDNCETCTCYETEISCCTLVSTPVGYDKDNCQRIFKKEDCKYIVVEKKDPKKTCSVSEWII” is “soluble”.
